Measured values reported in JP2013242308A.

Biological target: テネイシンC (human) (UniProt P24821)
Assay: SPR (Biacore 2000)

Kd: 40 nM
B1: 抗TNC−4F10のscFvフラグメント(scFv 4F10) (scFv, not shown: small tags and cut ends)
scFv: EVLLQQSGPELVKPGASVKIPCKASGYTFTDYNMDWMKQSHGKSLEWIGDINPKSGNSIYNQKFKGKATLTVDKSSSTAYMELRSLTSEDTAVYYCAGRDWSAWFAFWGQGTLVSVSAGGGGSGGGGSGGGGSDVVMTQTPLTLSVIIGQPASISCKSSQSLLYSNGKTYLNWLLQRPGQSPKRLIYLVSKLDSGVPDRFTGSGSGTDFTLKISRVEAEDLGDYYCVQTTHFPWTFGGGTKLEIKDYKDDDDK
